What was measured:
Assay in all cases: voltammetric sandwich aptasensor
horseradish peroxidase = horseradish peroxidase (horseradish, UniProt P00433 31-338)
[1] = biological target: prostate-specific antigen (PSA) (UniProt P07288 25-261)
thrombin = thrombin (UniProt P00734;P00734 328-363;364-622)

Measured: binding result

Sequence of horseradish peroxidase (P00433 31-338): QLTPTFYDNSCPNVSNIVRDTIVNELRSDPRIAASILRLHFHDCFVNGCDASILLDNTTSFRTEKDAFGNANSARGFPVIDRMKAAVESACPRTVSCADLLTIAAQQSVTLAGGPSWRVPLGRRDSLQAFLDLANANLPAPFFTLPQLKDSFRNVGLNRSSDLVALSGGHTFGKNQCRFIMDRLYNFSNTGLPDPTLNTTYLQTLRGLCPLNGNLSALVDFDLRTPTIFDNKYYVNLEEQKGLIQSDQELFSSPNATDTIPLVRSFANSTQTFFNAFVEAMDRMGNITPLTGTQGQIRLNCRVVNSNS
Sequence of prostate-specific antigen (PSA) (P07288 25-261): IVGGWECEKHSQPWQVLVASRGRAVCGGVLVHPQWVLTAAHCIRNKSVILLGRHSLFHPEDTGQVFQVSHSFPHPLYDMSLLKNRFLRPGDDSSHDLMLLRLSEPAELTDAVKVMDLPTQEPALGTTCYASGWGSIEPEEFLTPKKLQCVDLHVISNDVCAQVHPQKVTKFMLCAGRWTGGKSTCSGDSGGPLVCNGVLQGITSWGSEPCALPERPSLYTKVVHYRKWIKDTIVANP

GATTGAAAGGTCTGTTTTTGGGGTTGGTTTGGGTCAATA (ssDNA, 5'-SH-(CH2)6) [anti-rHuEPO aptamer (39-base)]
no binding: all assays above

Reference: paper PMC4043723
